The supplement of paper PMC11316812
± gives the standard deviation of the averaged measurements.

What was measured:
hTERT-HMEC = assay: percentage of EdU-negative (G0-arrested) nuclei per well, 72 h; higher = more G0 arrest; conditions: reference: sequence is the full UniProt precursor, the tested protein was the secreted form or ectodomain
MCF7 = assay: as above; conditions: reference: sequence is the full UniProt precursor, the tested protein was the secreted form or ectodomain
[1] = protein concentration 0.0277143 µM
[2] = protein concentration 0.277143 µM
[3] = protein concentration 0.0225 µM
[4] = protein concentration 0.01625 µM
[5] = protein concentration 0.1625 µM
[6] = protein concentration 0.03125 µM
[7] = protein concentration 0.3125 µM
[8] = protein concentration 0.0301575 µM
[9] = protein concentration 0.301575 µM
[10] = protein concentration 0.01925 µM
[11] = protein concentration 0.1925 µM
[12] = protein concentration 0.0119275 µM
[13] = protein concentration 0.119275 µM
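Further: secreted proteins added to cultured cells, EdU pulse at the end, nuclei found by Hoechst imaging, EdU status from nuclear versus surrounding ring intensity ratio, PBS as neutral control.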

For “MAPVAVWAALAVGLELWAAAHALPAQVAFTPYAPEPGSTCRLREYYDQTAQMCCSKCSPGQHAKVFCTKTSDTVCDSCEDSTYTQLWNWVPECLSCGSRCSSDQVETQACTREQNRICTCRPGWYCALSKQEGCRLCAPLRKCRPGFGVARPGTETSDVVCKPCAPGTFSNTTSSTDICRPHQICNVVAIPGNASMDAVCTSTSPTRSMAPGAVHLPQPVSTRSQHTQPTPEPSTAPSTSFLLPMGPSPPAEGSTGDFALPVGLIVGVTALGLLIIGVVNCVIMTQVKKKPLCLQREAKVPHLPADKARGTQGPEQQHLLITAPSSSSSSLESSASALDRRAPTRNQPQAPGVEASGAGEARASTGSSDSSPGGHGTQVNVTCIVNVCSSSDHSSQCSSQASSTMGDTDSSPSESPKDEQVPFSKEECAFRSQLETPETLLGSTEEKPLPLGVPDAGMKPS”, the “percentage of EdU-negative” value (hTERT-HMEC; [1]) was 5.56 ± 0.29%, the “percentage of EdU-negative” value (hTERT-HMEC; [2]) was 6.09 ± 1.2% and the “percentage of EdU-negative” value (MCF7; [1]) was 22.2 ± 1.9%. The “percentage of EdU-negative” value (MCF7; [2]) was 23.6 ± 1.1%.
“MFSTKALLLAGLISTALAGPWANICAGKSSNEIRTCDRHGCGQYSAQRSQRPHQGVDILCSAGSTVYAPFTGMIVGQEKPYQNKNAINNGVRISGRGFCVKMFYIKPIKYKGPIKKGEKLGTLLPLQKVYPGIQSHVHIENCDSSDPTAYL” was tested, and the “percentage of EdU-negative” value (hTERT-HMEC; [3]) was 4.82 ± 1.7%, the “percentage of EdU-negative” value (hTERT-HMEC; protein concentration 0.225 µM) was 7.53 ± 0.43% and the “percentage of EdU-negative” value (MCF7; [3]) was 23.8 ± 1.3%. For the same sequence, the “percentage of EdU-negative” value (MCF7; protein concentration 0.225 µM) was 26.3 ± 0.79%.
With “MQVSTAALAVLLCTMALCNQFSASLAADTPTACCFSYTSRQIPQNFIADYFETSSQCSKPGVIFLTKRSRQVCADPSEEWVQKYVSDLELSA” the “percentage of EdU-negative” value (hTERT-HMEC; [4]) was 4.43 ± 0.47%, the “percentage of EdU-negative” value (hTERT-HMEC; [5]) was 5.62 ± 0.9% and the “percentage of EdU-negative” value (MCF7; [4]) was 25.6 ± 0.31%. The “percentage of EdU-negative” value (MCF7; [5]) was 25.3 ± 0.67%.
“MVWKVAVFLSVALGIGAVPIDDPEDGGKHWVVIVAGSNGWYNYRHQADACHAYQIIHRNGIPDEQIVVMMYDDIAYSEDNPTPGIVINRPNGTDVYQGVPKDYTGEDVTPQNFLAVLRGDAEAVKGIGSGKVLKSGPQDHVFIYFTDHGSTGILVFPNEDLHVKDLNETIHYMYKHKMYRKMVFYIEACESGSMMNHLPDNINVYATTAANPRESSYACYYDEKRSTYLGDWYSVNWMEDSDVEDLTKETLHKQYHLVKSHTNTSHVMQYGNKTISTMKVMQFQGMKRKASSPVPLPPVTHLDLTPSPDVPLTIMKRKLMNTNDLEESRQLTEEIQRHLDARHLIEKSVRKIVSLLAASEAEVEQLLSERAPLTGHSCYPEALLHFRTHCFNWHSPTYEYALRHLYVLVNLCEKPYPLHRIKLSMDHVCLGHY” was tested, and the “percentage of EdU-negative” value (hTERT-HMEC; [6]) was 5.13 ± 0.28%, the “percentage of EdU-negative” value (hTERT-HMEC; [7]) was 5.28 ± 0.11% and the “percentage of EdU-negative” value (MCF7; [6]) was 26.412 ± 0.015%. The “percentage of EdU-negative” value (MCF7; [7]) was 26 ± 1.2%.
In the case of “MMCPLWRLLIFLGLLALPLAPHKQPWPGLAQAHRDNKSTLARIIAQGLIKHNAESRIQNIHFGDRLNASAQVAPGLVGWLISGRKHQQQQESSINITNIQLDCGGIQISFHKEWFSANISLEFDLELRPSFDNNIVKMCAHMSIVVEFWLEKDEFGRRDLVIGKCDAEPSSVHVAILTEAIPPKMNQFLYNLKENLQKVLPHMVESQVCPLIGEILGQLDVKLLKSLIEQEAAHEPTHHETSQPSACQAGESPS [Q9BQP9]”, the “percentage of EdU-negative” value (hTERT-HMEC; [3]) is reported as 4.7 ± 0.18%, the “percentage of EdU-negative” value (hTERT-HMEC; protein concentration 0.225 µM) is reported as 12.1 ± 1.2% and the “percentage of EdU-negative” value (MCF7; [3]) is reported as 25.2 ± 1.2%. The “percentage of EdU-negative” value (MCF7; protein concentration 0.225 µM) was 26.8 ± 0.78%.
For “MLIFWTITLFLLGAAKGKEVCYEDLGCFSDTEPWGGTAIRPLKILPWSPEKIGTRFLLYTNENPNNFQILLLSDPSTIEASNFQMDRKTRFIIHGFIDKGDESWVTDMCKKLFEVEEVNCICVDWKKGSQATYTQAANNVRVVGAQVAQMLDILLTEYSYPPSKVHLIGHSLGAHVAGEAGSKTPGLSRITGLDPVEASFESTPEEVRLDPSDADFVDVIHTDAAPLIPFLGFGTNQQMGHLDFFPNGGESMPGCKKNALSQIVDLDGIWAGTRDFVACNHLRSYKYYLESILNPDGFAAYPCTSYKSFESDKCFPCPDQGCPQMGHYADKFAGRTSEEQQKFFLNTGEASNFARWRYGVSITLSGRTATGQIKVALFGNKGNTHQYSIFRGILKPGSTHSYEFDAKLDVGTIEKVKFLWNNNVINPTLPKVGATKITVQKGEEKTVYNFCSEDTVREDTLLTLTPC”, the “percentage of EdU-negative” value (hTERT-HMEC; [8]) was 5.42 ± 0.23%, the “percentage of EdU-negative” value (hTERT-HMEC; [9]) was 5.14 ± 0.29% and the “percentage of EdU-negative” value (MCF7; [8]) was 25.8 ± 0.77%. The “percentage of EdU-negative” value (MCF7; [9]) was 26.6 ± 1.5%.
With “MRPVSVWQWSPWGLLLCLLCSSCLGSPSPSTGPEKKAGSQGLRFRLAGFPRKPYEGRVEIQRAGEWGTICDDDFTLQAAHILCRELGFTEATGWTHSAKYGPGTGRIWLDNLSCSGTEQSVTECASRGWGNSDCTHDEDAGVICKDQRLPGFSDSNVIEVEHHLQVEEVRIRPAVGWGRRPLPVTEGLVEVRLPDGWSQVCDKGWSAHNSHVVCGMLGFPSEKRVNAAFYRLLAQRQQHSFGLHGVACVGTEAHLSLCSLEFYRANDTARCPGGGPAVVSCVPGPVYAASSGQKKQQQSKPQGEARVRLKGGAHPGEGRVEVLKASTWGTVCDRKWDLHAASVVCRELGFGSAREALSGARMGQGMGAIHLSEVRCSGQELSLWKCPHKNITAEDCSHSQDAGVRCNLPYTGAETRIRLSGGRSQHEGRVEVQIGGPGPLRWGLICGDDWGTLEAMVACRQLGLGYANHGLQETWYWDSGNITEVVMSGVRCTGTELSLDQCAHHGTHITCKRTGTRFTAGVICSETASDLLLHSALVQETAYIEDRPLHMLYCAAEENCLASSARSANWPYGHRRLLRFSSQIHNLGRADFRPKAGRHSWVWHECHGHYHSMDIFTHYDILTPNGTKVAEGHKASFCLEDTECQEDVSKRYECANFGEQGITVGCWDLYRHDIDCQWIDITDVKPGNYILQVVINPNFEVAESDFTNNAMKCNCKYDGHRIWVHNCHIGDAFSEEANRRFERYPGQTSNQII” the “percentage of EdU-negative” value (hTERT-HMEC; [10]) was 4.9 ± 0.65%, the “percentage of EdU-negative” value (hTERT-HMEC; [11]) was 39.2 ± 1.2% and the “percentage of EdU-negative” value (MCF7; [10]) was 25.3 ± 1.3%. The “percentage of EdU-negative” value (MCF7; [11]) was 31.5 ± 2.3%.
“MQPLWLCWALWVLPLASPGAALTGEQLLGSLLRQLQLKEVPTLDRADMEELVIPTHVRAQYVALLQRSHGDRSRGKRFSQSFREVAGRFLALEASTHLLVFGMEQRLPPNSELVQAVLRLFQEPVPKAALHRHGRLSPRSARARVTVEWLRVRDDGSNRTSLIDSRLVSVHESGWKAFDVTEAVNFWQQLSRPRQPLLLQVSVQREHLGPLASGAHKLVRFASQGAPAGLGEPQLELHTLDLGDYGAQGDCDPEAPMTEGTRCCRQEMYIDLQGMKWAENWVLEPPGFLAYECVGTCRQPPEALAFKWPFLGPRQCIASETDSLPMIVSIKEGGRTRPQVVSLPNMRVQKCSCASDGALVPRRLQP” was tested, and the “percentage of EdU-negative” value (hTERT-HMEC; [12]) was 5.05 ± 0.39%, the “percentage of EdU-negative” value (hTERT-HMEC; [13]) was 5.49 ± 0.4% and the “percentage of EdU-negative” value (MCF7; [12]) was 25.8 ± 0.59%. The “percentage of EdU-negative” value (MCF7; [13]) was 26.51 ± 0.11%.
With “MFHVSFRYIFGLPPLILVLLPVASSDCDIEGKDGKQYESVLMVSIDQLLDSMKEIGSNCLNNEFNFFKRHICDANKEGMFLFRAARKLRQFLKMNSTGDFDLHLLKVSEGTTILLNCTGQVKGRKPAALGEAQPTKSLEENKSLKEQKKLNDLCFLKRLLQEIKTCWNKILMGTKEH” the “percentage of EdU-negative” value (hTERT-HMEC; [3]) was 5.22 ± 1%, the “percentage of EdU-negative” value (hTERT-HMEC; [6]) was 5.03 ± 1.4% and the “percentage of EdU-negative” value (hTERT-HMEC; protein concentration 0.225 µM) was 6.63 ± 0.069%. The “percentage of EdU-negative” value (hTERT-HMEC; [7]) was 4.47 ± 0.49%, the “percentage of EdU-negative” value (MCF7; [3]) was 27.6 ± 3.5% and the “percentage of EdU-negative” value (MCF7; [6]) was 26 ± 0.34%. For the same sequence, the “percentage of EdU-negative” value (MCF7; protein concentration 0.225 µM) was 25.3 ± 1.1% and the “percentage of EdU-negative” value (MCF7; [7]) was 25.9 ± 0.41%.
In the case of “MSALGAVIALLLWGQLFAVDSGNDVTDIADDGCPKPPEIAHGYVEHSVRYQCKNYYKLRTEGDGVYTLNDKKQWINKAVGDKLPECEADDGCPKPPEIAHGYVEHSVRYQCKNYYKLRTEGDGVYTLNNEKQWINKAVGDKLPECEAVCGKPKNPANPVQRILGGHLDAKGSFPWQAKMVSHHNLTTGATLINEQWLLTTAKNLFLNHSENATAKDIAPTLTLYVGKKQLVEIEKVVLHPNYSQVDIGLIKLKQKVSVNERVMPICLPSKDYAEVGRVGYVSGWGRNANFKFTDHLKYVMLPVADQDQCIRHYEGSTVPEKKTPKSPVGVQPILNEHTFCAGMSKYQEDTCYGDAGSAFAVHDLEEDTWYATGILSFDKSCAVAEYGVYVKVTSIQDWVQKTIAEN”, the “percentage of EdU-negative” value (hTERT-HMEC; [6]) is reported as 4.46 ± 0.32%, the “percentage of EdU-negative” value (hTERT-HMEC; [7]) is reported as 5.96 ± 1.1% and the “percentage of EdU-negative” value (MCF7; [6]) is reported as 23.8 ± 3%. For the same sequence, the “percentage of EdU-negative” value (MCF7; [7]) was 23.1 ± 0.73%.
For “MAAPGSARRPLLLLLLLLLLGLMHCASAAMFMVKNGNGTACIMANFSAAFSVNYDTKSGPKNMTFDLPSDATVVLNRSSCGKENTSDPSLVIAFGRGHTLTLNFTRNATRYSVQLMSFVYNLSDTHLFPNASSKEIKTVESITDIRADIDKKYRCVSGTQVHMNNVTVTLHDATIQAYLSNSSFSRGETRCEQDRPSPTTAPPAPPSPSPSPVPKSPSVDKYNVSGTNGTCLLASMGLQLNLTYERKDNTTVTRLLNINPNKTSASGSCGAHLVTLELHSEGTTVLLFQFGMNASSSRFFLQGIQLNTILPDARDPAFKAANGSLRALQATVGNSYKCNAEEHVRVTKAFSVNIFKVWVQAFKVEGGQFGSVEECLLDENSMLIPIAVGGALAGLVLIVLIAYLVGRKRSHAGYQTI”, the “percentage of EdU-negative” value (hTERT-HMEC; [3]) was 4.801 ± 0.044%, the “percentage of EdU-negative” value (hTERT-HMEC; protein concentration 0.225 µM) was 7.68 ± 1.6% and the “percentage of EdU-negative” value (MCF7; [3]) was 27.7 ± 2.6%. For the same sequence, the “percentage of EdU-negative” value (MCF7; protein concentration 0.225 µM) was 28.6 ± 2.1%.
